# Experimental data as given in patent US20220402983A1 (Janssen / Centocor, published 2022).
# *1 amine or outer side, *2 acyl side, *3 side chain or, on linkers, in order; H or OH if unused. Bridges are numbered along the chain shown (N, C = ends). [ ]: non-standard residue; d: D form. The star is where a group is joined. bMe2Nal(2S,3R) = beta-methyl-2-naphthylalanine (2S,3R), C[C@H](c1ccc2ccccc2c1)[C@H](N[*:1])C(=O)[*:2]; Trp(7-Me) = Cc1cccc2c(C[C@H](N)C(=O)O)c[nH]c12; Phe(4-NH2) = Nc1ccc(C[C@H](N)C(=O)O)cc1; 2Nal = N[C@@H](Cc1ccc2ccccc2c1)C(=O)O; AEF = NCCOc1ccc(C[C@H](N)C(=O)O)cc1; αMeF = C[C@](N)(Cc1ccccc1)C(=O)O; Pen = CC(C)(S)[C@H](N)C(=O)O; αMeK = C[C@](N)(CCCCN)C(=O)O; αMeC = C[C@](N)(CS)C(=O)O; Thp = NC1(C(=O)O)CCOCC1; Ac3c = NC1(C(=O)O)CC1; Propionyl = CCC(=O)*
# T1: human IL-23R (interleukin-23 receptor) (human, UniProt Q5VWK5 24-629)
# T1 sequence (looked up): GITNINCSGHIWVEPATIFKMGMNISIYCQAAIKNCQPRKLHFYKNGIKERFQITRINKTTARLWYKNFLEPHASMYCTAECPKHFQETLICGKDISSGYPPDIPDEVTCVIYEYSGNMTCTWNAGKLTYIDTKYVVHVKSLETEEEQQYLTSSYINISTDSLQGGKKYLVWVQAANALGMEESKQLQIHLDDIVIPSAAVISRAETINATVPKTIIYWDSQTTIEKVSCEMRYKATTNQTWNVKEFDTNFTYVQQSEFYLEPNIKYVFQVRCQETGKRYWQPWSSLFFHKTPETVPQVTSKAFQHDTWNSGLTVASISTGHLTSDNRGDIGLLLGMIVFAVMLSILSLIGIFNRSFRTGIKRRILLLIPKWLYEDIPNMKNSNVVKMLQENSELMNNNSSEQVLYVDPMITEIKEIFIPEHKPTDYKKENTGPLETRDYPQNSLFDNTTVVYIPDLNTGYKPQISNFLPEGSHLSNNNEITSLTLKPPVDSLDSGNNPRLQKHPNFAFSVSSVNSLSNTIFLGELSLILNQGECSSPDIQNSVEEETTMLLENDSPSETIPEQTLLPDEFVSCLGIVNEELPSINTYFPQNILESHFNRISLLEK
# B1: Compound No. 308 (peptide)
# peptide: Ac-[dR][Pen]NT[Trp(7-Me)]K(Ac)[Pen][AEF](Ac)[2Nal][Ac3c]EN[Thp]-NH2
# modifications: disulfide 2-7
# SMILES: CC(=O)NCCCC[C@@H]1NC(=O)[C@H](Cc2c[nH]c3c(C)cccc23)NC(=O)[C@H]([C@@H](C)O)NC(=O)[C@H](CC(N)=O)NC(=O)[C@@H](NC(=O)[C@@H](CCCNC(=N)N)NC(C)=O)C(C)(C)SSC(C)(C)[C@@H](C(=O)N[C@@H](Cc2ccc(OCCNC(C)=O)cc2)C(=O)N[C@@H](Cc2ccc3ccccc3c2)C(=O)NC2(C(=O)N[C@@H](CCC(=O)O)C(=O)N[C@@H](CC(N)=O)C(=O)NC3(C(N)=O)CCOCC3)CC2)NC1=O
# B2: Compound No. 306 (peptide)
# peptide: Ac-[dR][Pen]NT[Trp(7-Me)][Phe(4-NH2)](Ac)[Pen][AEF][2Nal][Ac3c]EN[Thp]-NH2
# modifications: disulfide 2-7
# SMILES: CC(=O)Nc1ccc(C[C@@H]2NC(=O)[C@H](Cc3c[nH]c4c(C)cccc34)NC(=O)[C@H]([C@@H](C)O)NC(=O)[C@H](CC(N)=O)NC(=O)[C@@H](NC(=O)[C@@H](CCCNC(=N)N)NC(C)=O)C(C)(C)SSC(C)(C)[C@@H](C(=O)N[C@@H](Cc3ccc(OCCN)cc3)C(=O)N[C@@H](Cc3ccc4ccccc4c3)C(=O)NC3(C(=O)N[C@@H](CCC(=O)O)C(=O)N[C@@H](CC(N)=O)C(=O)NC4(C(N)=O)CCOCC4)CC3)NC2=O)cc1
# B3: Compound No. 310 (peptide)
# peptide: Ac-[dR]CNT[Trp(7-Me)]K(Ac)[αMeC][AEF][2Nal][Ac3c]EN[Thp]-NH2
# modifications: disulfide 2-7
# SMILES: CC(=O)NCCCC[C@@H]1NC(=O)[C@H](Cc2c[nH]c3c(C)cccc23)NC(=O)[C@H]([C@@H](C)O)NC(=O)[C@H](CC(N)=O)NC(=O)[C@@H](NC(=O)[C@@H](CCCNC(=N)N)NC(C)=O)CSSC[C@@](C)(C(=O)N[C@@H](Cc2ccc(OCCN)cc2)C(=O)N[C@@H](Cc2ccc3ccccc3c2)C(=O)NC2(C(=O)N[C@@H](CCC(=O)O)C(=O)N[C@@H](CC(N)=O)C(=O)NC3(C(N)=O)CCOCC3)CC2)NC1=O
# B4: Compound No. 311 (peptide)
# peptide: Ac-[Pen]NT[Trp(7-Me)]K(Ac)[Pen][4PipPhe][2Nal][αMeK]K(Ac)N[αMeF]-NH2
# modifications: disulfide 1-6
# B5: Compound No. 309 (peptide)
# peptide: Ac-[dR][Pen]NT[Trp(7-Me)]K(Ac)[Pen][AEF][2Nal][Ac3c]ENHX-NH2
# modifications: disulfide 2-7; not fully specified (residue 14); printed as MeCO-F[(D)Arg]-Pen-N -T-7MeW-K(Ac)-Pen-AEF-2Nal-Acpx-E-N-H-paf-CONH2
# B6: Compound No. 312 (peptide)
# peptide: XNTXKXXXKKNF
# modifications: MeCO-Pen-N-T-7MeTrp-K(Ac)-Pen-AEF-2Nal-aMeK-K(Ac)-N-bMePhe(S,R)-CONH2; cyclized: Pen-Pen disulfide bond
# B7: Compound No. 307 (peptide)
# peptide: Propionyl-[dR][Pen]QTWQ[Pen][AEF][bMe2Nal(2S,3R)][Thp]EN[Thp]-NH2
# modifications: disulfide 2-7
# SMILES: CCC(=O)N[C@H](CCCNC(=N)N)C(=O)N[C@@H]1C(=O)N[C@@H](CCC(N)=O)C(=O)N[C@@H]([C@@H](C)O)C(=O)N[C@@H](Cc2c[nH]c3ccccc23)C(=O)N[C@@H](CCC(N)=O)C(=O)N[C@H](C(=O)N[C@@H](Cc2ccc(OCCN)cc2)C(=O)N[C@H](C(=O)NC2(C(=O)N[C@@H](CCC(=O)O)C(=O)N[C@@H](CC(N)=O)C(=O)NC3(C(N)=O)CCOCC3)CCOCC2)[C@H](C)c2ccc3ccccc3c2)C(C)(C)SSC1(C)C
# Molecular target: T1, human IL-23R (interleukin-23 receptor)
# Experiment: cell-based or functional assay
row,Binder,PBMC pSTAT3 IC50 (nM)
1,B1,8 nM
2,B2,9.6 nM
3,B3,9.9 nM
4,B4,290 nM
5,B5,8 nM
6,B6,90 nM
7,B7,52 nM
